For this test, the target named is T1, Human Nectin-4 (human, UniProt Q96NY8 32-349, limits assumed).
T1 construct: Protein immobilised on the SPR chip; also called target protein
T1 sequence: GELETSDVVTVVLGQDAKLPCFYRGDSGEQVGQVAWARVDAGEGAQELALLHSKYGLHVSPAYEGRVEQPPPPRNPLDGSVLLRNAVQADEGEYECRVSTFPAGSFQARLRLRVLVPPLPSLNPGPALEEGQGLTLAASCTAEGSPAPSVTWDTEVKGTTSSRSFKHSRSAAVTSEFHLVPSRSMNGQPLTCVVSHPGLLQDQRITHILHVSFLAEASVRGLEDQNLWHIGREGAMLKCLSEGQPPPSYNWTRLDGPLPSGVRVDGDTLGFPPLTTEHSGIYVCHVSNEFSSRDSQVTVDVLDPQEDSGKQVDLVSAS
The experiment in a line: Table 2B (DELFIA or SPR).

Bridges are numbered along the chain shown (N, C = ends). Primed or numbered codes have the meaning given here. Where no end group is shown, it is not given here. The star is where a group is joined. Biotin = O=C1N[C@H]2[C@H](CS[C@H]2CCCCC(=O)*)N1; PEG4″ = 4(ethylene glycol)

One may read the Kd as the equilibrium constant for the complex coming apart. High values mean lower affinity, low ones higher affinity. {Biotin-PEG4″}-CEYDEEFFTALKRLRGGDICEYIQASFQYLPGLCIEEILDNLGCS-OH (designed binder, disulfide 1-34, 20-44) [C178]: the Kd was found to be 1.4 nM.

The molecule {Biotin-PEG4″}-CEYDEEFFTALKRLRGGDICYYIQAKFQYLPKLCIEEILDNLGCS (designed binder, disulfide 1-34, 20-44) [C119] gave a Kd of 0.95 nM.

In turn, {Biotin-PEG4″}-CEYDEEFFTALARLRGSDICLYIQAKFQYLPGLCIEEILDNLGCS-OH (designed binder, disulfide 1-34, 20-44) [C156] displayed a Kd of 1.1 nM.

Molecule {Biotin-PEG4″}-CEYDEQFFTALARLRGGDICYYILAKFQYLPQLCIEEILDNLGCS (designed binder, disulfide 1-34, 20-44) [C152] registered a Kd of 0.85 nM.

With {Biotin-PEG4″}-CEYDEAFFTALARLRGGDICQYIQAKFQYLPGLCIEEILDNLGCS-OH (designed binder, disulfide 1-34, 20-44) [C151], binding was characterised by a dissociation constant (Kd) of 0.68 nM.

With {Biotin-PEG4″}-CEYDEEFFTALARLRGADICDYIQAKFQYLPGLCIEEILDNLGCS (designed binder, disulfide 1-34, 20-44) [C147], the Kd amounted to 0.69 nM.

Take {Biotin-PEG4″}-CEYDEEFFTALARLRGGDICYYIQAYFQYLPGLCIEEILDNLGCS-OH (designed binder, disulfide 1-34, 20-44) [C174]: the Kd was determined as 4.1 nM.

For the molecule {Biotin-PEG4″}-CEYDEEFFTALARLRGGDICYYIQAKFQYLPGLCIEEILDNLGCS (designed binder, disulfide 1-34, 20-44) [C127], the Kd was determined as 1.27 nM.

{Biotin-PEG4″}-CEYDEEFFTALARLRGGDICYYIQAKFQYLPGECIEEILQNLGCS-OH (designed binder, disulfide 1-34, 20-44) [C142]: binding was characterised by a dissociation constant (Kd) of 0.81 nM.

Molecule {Biotin-PEG4″}-CEYDEEFFTALARLRGGDICQYIQAKFAYVPGLCIEEILDNLGCS-OH (designed binder, disulfide 1-34, 20-44) [C155] gave a dissociation constant (Kd) of 1.1 nM.

{Biotin-PEG4″}-CEYDEEFFTALARLRGGDICDYIQAKFQYLPKLCIEEILDNLGCS (designed binder, disulfide 1-34, 20-44) [C169] displayed a Kd of 0.74 nM.

Turning to {Biotin-PEG4″}-CEYDEEFFTALKRLRGGDICSYIQASFQYLPGLCIEEILDNLGCS-OH (designed binder, disulfide 1-34, 20-44) [C179], binding was characterised by a dissociation constant (Kd) of 1.8 nM.

Turning to {Biotin-PEG4″}-CEYDEEFFTALKRLRGGDICYYIQKAFQYLPGLCIEEILDNLGCS (designed binder, disulfide 1-34, 20-44) [C123], the affinity, expressed as Kd, was 1.43 nM.

On to {Biotin-PEG4″}-CEYDGEFFTALARLRGADICEYIQAKFQYYPGLCIEEILDNLGCS-OH (designed binder, disulfide 1-34, 20-44) [C144], for which the equilibrium dissociation constant (Kd) came out at 3.7 nM.

In turn, {Biotin-PEG4″}-CEYDEEFFTALARLRGGDICDYIQAKFQYLPGLCIAEILDNLGCS-OH (designed binder, disulfide 1-34, 20-44) [C157] yielded a Kd of 1.1 nM.

The molecule {Biotin-PEG4″}-CEYDEEFFTALARLRGGDICYYIQAYFQYLPGLCIEEILDNLGCS-OH (designed binder, disulfide 1-34, 20-44) [C165] had an equilibrium dissociation constant (Kd) of 4.1 nM.

For {Biotin-PEG4″}-CEYDEEFFTALARLRGGDICYYILAKFQYLPGECIEEILDNLGCS (designed binder, disulfide 1-34, 20-44) [C145], the affinity, expressed as Kd, was 1.3 nM.

{Biotin-PEG4″}-CEYDEQFFTALKALRGGDICYYIQASFNYLPDLCIEEILDNLGCS (designed binder, disulfide 1-34, 20-44) [C115] had a Kd of 6.46 nM.

Take {Biotin-PEG4″}-CEYDEEFFTALARLRGGDICYYIQAKFQYLPKLCIEEILDNLGCS-OH (designed binder, disulfide 1-34, 20-44) [C166]: binding was characterised by a dissociation constant (Kd) of 0.75 nM.

{Biotin-PEG4″}-CEYDEEFFTALARLRGGDICEYIQAKFQYLEGLCIEEILDNLGCS-OH (designed binder, disulfide 1-34, 20-44) [C150] yielded an equilibrium dissociation constant (Kd) of 1 nM.

{Biotin-PEG4″}-CDYDEEFFTALARLRGGDICEYIQAKFQYLPGLCIEEILDNLGCS (designed binder, disulfide 1-34, 20-44) [C141] gave a Kd of 0.64 nM.

In the case of {Biotin-PEG4″}-CEYDEEFFTALARLRGGDICEYIQAKFQYLPKLCIEEILDNLGCS-OH (designed binder, disulfide 1-34, 20-44) [C167], the dissociation constant (Kd) amounted to 1.2 nM.

The molecule Ac-CEYDEEFFTALARLRGGDICYYIQAKFQYLPGLCIEEILDNLGCS (designed binder, disulfide 1-34, 20-44) [C124] had a Kd of 1.1 nM.

{Biotin-PEG4″}-CEYDEEFFTALKRLRGGDICYYIQASFQYLPGLCIEEILDNLGCS (designed binder, disulfide 1-34, 20-44) [C111]: binding was characterised by a dissociation constant (Kd) of 4.32 nM.

In turn, {Biotin-PEG4″}-CEYDGEFFTALARLRGGDICQYIQAKFQYLPGLCIEEILDNLGCS-OH (designed binder, disulfide 1-34, 20-44) [C158] yielded a Kd of 1.1 nM.

With {Biotin-PEG4″}-CEYDEEFFTALARLRGADICYYIQAKFQYLPGDCIEEILDNLGCS (designed binder, disulfide 1-34, 20-44) [C140], the dissociation constant (Kd) was 1.1 nM.

Turning to Ac-CEYDEEFFTALKRLRGGDICYYIQASFQYLPGLCIEEILDNLGCS (designed binder, disulfide 1-34, 20-44) [C108], the Kd turned out to be 5.78 nM.

Take {Biotin-PEG4″}-CEYDEEFFTALARLRGGDICYYIQAKFAYLPALCIEEILDNLGCS (designed binder, disulfide 1-34, 20-44) [C154]: the Kd is 0.94 nM.

Consider {Biotin-PEG4″}-CEYDEEFFTALKRLRGDDICYYIQASFQYLPGLCIEEILDNLGCS-OH (designed binder, disulfide 1-34, 20-44) [C180], for which the affinity, expressed as Kd, was 2.7 nM.

For the molecule {Biotin-PEG4″}-CEYDEEFFTALARLRGGDICQYIQAKFQYLPALCIEEILDNLGCS (designed binder, disulfide 1-34, 20-44) [C153], the Kd was 0.56 nM.

With {Biotin-PEG4″}-CEYDEEFFTALARLRGGDICSYIQAKFQYLPKLCIEEILDNLGCS (designed binder, disulfide 1-34, 20-44) [C168], the Kd amounted to 0.9 nM.

In the case of {Biotin-PEG4″}-CEYDEEFFTALSRLRGGDICYYIQQAFQYLPGLCIEEILDNLGCS (designed binder, disulfide 1-34, 20-44) [C135], the Kd was 5.42 nM.

Regarding {Biotin-PEG4″}-CEYDEQFFTALARLRGGDICEYIQAKFQYLPGLCIEEILDNLGCS (designed binder, disulfide 1-34, 20-44) [C146], the affinity, expressed as Kd, was 0.54 nM.

{Biotin-PEG4″}-CEYDEEFFTALKRLRGGDICYYIQASFQYLPGECIEEILDNLGCS-OH (designed binder, disulfide 1-34, 20-44) [C177] showed a Kd of 2 nM.

As for {Biotin-PEG4″}-CEYDEEFFTALAQLRGGDICYYIQAKFQYLPGLCIEEILDNLGCS-OH (designed binder, disulfide 1-34, 20-44) [C162], binding was put at a Kd of 8.8 nM.

Turning to {Biotin-PEG4″}-CEYDEEFFTALASLRGGDICYYIQAKFQYLPGLCIEEILDNLGCS-OH (designed binder, disulfide 1-34, 20-44) [C161], binding was characterised by a dissociation constant (Kd) of 7.5 nM.

In turn, Ac-CEYDEEFFTALKRLRGGDICYYIQAKFQYLPKLCIEEILDNLGCS (designed binder, disulfide 1-34, 20-44) [C116] had a Kd of 0.78 nM.

For the molecule {Biotin-PEG4″}-CEYDEEFFTALARLRGGDICEYIQAKFQYLPGLCIQEILDNLGCS (designed binder, disulfide 1-34, 20-44) [C148], the Kd turned out to be 0.82 nM.

Turning to Ac-CEYDEEFFTALKRLRGGDICYYIQKAFQYLPGLCIEEILDNLGCS (designed binder, disulfide 1-34, 20-44) [C120], the Kd was determined as 2.11 nM.

The values above are taken from patent US20260151519A1 (AKTIS ONCOLOGY, published 2026).
